Here are results for 2 molecules from US20110086026A1 (ROCHE PALO ALTO, published 2011).

Assay [1] deals with FcγRIIIa (CD16) on Natural Killer (NK) cells (UniProt P08637). Briefly: FACS on NK cells in PBMC, maximum binding at 20 µg/ml.
The target of assay [2] is T1, extracellular domain of hIL-13Rα1 cleaved from hIL-13Rα1:hFc chimeric protein (human, UniProt P78552 22-343).
T1 construct: extracellular domain; also called Cleaved hIL-13Rα1 molecules (MW 40 kDa)
T1 sequence (looked up): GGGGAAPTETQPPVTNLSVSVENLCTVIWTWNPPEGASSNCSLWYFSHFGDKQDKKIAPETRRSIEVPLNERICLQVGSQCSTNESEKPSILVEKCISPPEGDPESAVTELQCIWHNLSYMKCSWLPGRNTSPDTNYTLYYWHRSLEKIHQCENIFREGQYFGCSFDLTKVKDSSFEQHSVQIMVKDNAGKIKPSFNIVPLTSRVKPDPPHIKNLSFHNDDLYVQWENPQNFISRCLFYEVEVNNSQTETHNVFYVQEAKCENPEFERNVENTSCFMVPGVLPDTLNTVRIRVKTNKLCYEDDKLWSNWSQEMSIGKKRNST
Briefly: SPR Biacore 3000, CM5 chip, HuMab captured by anti-hFcγ, cleaved hIL-13Rα1 as analyte, bivalent analyte model (ka1). On the procedure:
(§1) In these experiments, the affinity of the original IgG1 derived from hybridoma was compared with the affinities of the recombinant variant IgG1-Ala-Ala. For interaction analysis, a Biacore 3000 instrument was used. Running and reaction buffer was HBS-P (10 mM HEPES, 150 mM NaCl, 0.005% polysurfactant P, pH 7.4) at 25° C. Capturing antibody molecules (anti-hFcγ) were amine-coupled at a concentration of 20 μg/ml at a flow rate of 5 μl/min for 20 minutes. HuMabs were injected at concentrations of 10 μg/ml at a flow rate of 10 μl/min for 1 minute. Cleaved hIL-13 Rα1 molelcules (analyte) were injected for five minutes at eight concentrations between 1.56 nM and 200 nM and washed with HBS-P for five minutes. Regeneration of the surface was accomplished by two injections of 100 mM HCl for 1 min each. The chip, assay format and sequence of injections and kinetic data correspond to the description in Table 4. Kinetic data were calculated by fitting kinetic data to a bivalent analyte binding model.

Assay [3] addresses T2, hIL-13Rα2:hFc chimeric protein (R&D Systems, UK) (human, UniProt Q14627 27-343).
T2 construct: Bought; not shown: human Fc (hFc) of the bought chimera
T2 sequence (looked up): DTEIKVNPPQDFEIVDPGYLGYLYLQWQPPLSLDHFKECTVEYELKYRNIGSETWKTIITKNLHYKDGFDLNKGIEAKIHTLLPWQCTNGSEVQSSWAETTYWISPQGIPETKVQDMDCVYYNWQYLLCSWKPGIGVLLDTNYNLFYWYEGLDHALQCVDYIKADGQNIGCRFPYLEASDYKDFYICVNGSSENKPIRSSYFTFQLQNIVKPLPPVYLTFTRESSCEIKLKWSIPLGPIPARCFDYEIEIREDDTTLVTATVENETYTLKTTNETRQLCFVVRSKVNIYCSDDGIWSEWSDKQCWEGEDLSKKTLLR
Briefly: ELISA, immobilized hIL-13Rα2:hFc, detection with anti-human kappa-POD, OD 405. On the procedure: (§2) Chimeric proteins hIL-13Rα2:hFc and hIL-4Rα:hFc (R&D Systems, UK) were dissolved in PBS (1 μg/ml) and allowed to adsorb to microtiter plates (NUNC Maxisorb) by incubation over night at 4° C. After washing the plates with washing buffer (WB=0.9% NaCl; 0.1% Tween® 20) unspecific binding sites were blocked by addition of 100 μl incubation buffer (IB=PBS with 1% crotein C and 0.1% Tween® 20) and incubation for 30 min at room-temperature (RT). Then serially diluted HuMab and control antibodies (100 μl/well; dilutions in IB) were added and incubated for 1 hour at RT. The plates were again washed and bound antibody was detected by incubation with peroxidase conjugated rabbit anti-human kappa (DAKO, Denmark) in a final dilution of 1:500 in IB. After incubation for 1 h at RT and a subsequent washing step, the plates were developed with ready-to-use ABTS® solution (Roche Diagnostics GmbH, DE) at RT in the dark. Absorbance was measured at 405 nm after absorbance of the highest concentration reached a sufficient OD.

Assay [4] concerns the target T3, hIL-13Rα1:hFc chimeric protein (R&D Systems, UK) (human, UniProt P78552 22-343).
T3 construct: extracellular domain; Bought; also called chimeric hIL-13Rα1:hFc; not shown: human Fc (hFc) of the bought chimera
T3 sequence (looked up): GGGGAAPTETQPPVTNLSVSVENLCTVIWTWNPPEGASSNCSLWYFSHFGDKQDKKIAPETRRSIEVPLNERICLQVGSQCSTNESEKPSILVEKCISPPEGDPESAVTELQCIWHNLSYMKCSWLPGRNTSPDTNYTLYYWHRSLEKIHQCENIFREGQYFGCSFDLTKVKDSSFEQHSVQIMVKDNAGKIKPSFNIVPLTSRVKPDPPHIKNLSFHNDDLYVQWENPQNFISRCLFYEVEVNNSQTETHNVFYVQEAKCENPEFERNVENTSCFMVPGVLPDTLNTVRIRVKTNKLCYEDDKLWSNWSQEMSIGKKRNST
Description: ELISA, immobilized hu IL-13Ra1:Fc, detection with anti-human kappa-POD, OD 405.

Assay [5] concerns the target FcγRIIIa (CD16) on Natural Killer (NK) cells (UniProt P08637). Description: FACS on NK cells in PBMC, 20 µg/ml, with 20 µg/ml of the blocking anti-CD16 clone 3G8 as competitor.
In assay [6] the target is T4, hIL-4Rα:hFc chimeric protein (R&D Systems, UK) (human, UniProt P24394 26-232).
T4 construct: Bought; not shown: human Fc (hFc) of the bought chimera
T4 sequence (looked up): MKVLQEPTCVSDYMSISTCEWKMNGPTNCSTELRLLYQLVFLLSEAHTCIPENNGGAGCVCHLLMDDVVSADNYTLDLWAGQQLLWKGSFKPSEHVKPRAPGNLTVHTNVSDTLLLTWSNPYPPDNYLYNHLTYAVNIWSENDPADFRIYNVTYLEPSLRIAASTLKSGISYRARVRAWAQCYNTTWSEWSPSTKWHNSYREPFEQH
Description: ELISA, immobilized hIL-4Rα:hFc, detection with anti-human kappa-POD, OD 405. The method, then:
as §2

For assay [7], the target named is T1, extracellular domain of hIL-13Rα1 …. Description: SPR Biacore 3000, CM5 chip, HuMab captured by anti-hFcγ, cleaved hIL-13Rα1 as analyte, bivalent analyte model (kd1). On the procedure: as §1
Assay [8] shares this target. Description: SPR Biacore 3000, CM5 chip, HuMab captured by anti-hFcγ, cleaved hIL-13Rα1 as analyte, bivalent analyte model. On the procedure: as §1

Sequence of FcγRIIIa (CD16) on Natural Killer (NK) cells (P08637 17-254 limits assumed): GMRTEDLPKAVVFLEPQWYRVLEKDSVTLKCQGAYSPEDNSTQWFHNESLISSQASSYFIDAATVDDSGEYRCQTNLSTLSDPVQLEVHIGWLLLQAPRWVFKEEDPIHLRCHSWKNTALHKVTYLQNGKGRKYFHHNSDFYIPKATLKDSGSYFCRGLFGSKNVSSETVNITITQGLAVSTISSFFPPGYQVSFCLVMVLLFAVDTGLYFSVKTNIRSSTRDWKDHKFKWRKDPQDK

B1: HuMab LC5002-005 (antibody, V domains shown)
VH: EVQVLDSGGGLVQPGGSLRLSCTASGFTFRLYTMSWVRQTPGRGLEWVSGISGSGLSTYFADSVKGRFTISRDNSKNTVYLQMNSLRAEDTAVYYCAKEGDWIYFDSWGQGTLVIVSS
VL: DIQMTQSPSSLSASVGDRVTITCRASQGISSWLAWYQQKPEKAPKSLIYAASSLQSGVPSRFSGSGSGTDFTLTISSLQPEDFATYYCQQYNSHPPTFGQGTKLEIK
notes: Only the variable domains are tied to this antibody; also called hu-MAB<h-IL-13Ralpha>LC.5002-005 (DSM ACC2711)
As to B1, the results for the Bmax (MFI) in assay [1] and in assay [5] were 581 MFI and 260 MFI, respectively. In assay [2], this molecule registered an on-rate (kon) of 133000 M⁻¹ s⁻¹. For the same molecule, the binding result in assay [3] and in assay [6] was “no binding (tested: 3.3 nM)” throughout. Besides, in assay [4], the half-maximal effective concentration (EC50 (read off the curve)) is around 0.4 nM. Besides, in assay [7], the koff worked out at 0.00036 s⁻¹. For the same molecule, the Kd in assay [8] is 2.7 nM.

B2: HuMab LC5002-003 (antibody, V domains shown)
VH: EVQLLESGGDLIQPGGSLRLSCAASGFTFNIYAMNWVRQAPGKGLEWVSVISGRGITTYYADSVKGRFTISRDNSKNTLYLQMDSLRAEDTAVYYCAKGSSYWTDFDYWGQGTLVTVSS
VL: DIQMTQSPSSLSASVGDRVTITCRASQGISSWLAWYQQKPEKAPKSLIYAASSLQSGVPSRFSGSGSGTDFTLTISSLQPEDFATYYCQQYNSYPWTFGQGTKVEIK
notes: Human IgG1 kappa from a HuMab mouse hybridoma; Only the variable domains are tied to this antibody; also called LC50002-003; hu-MAB<h-IL-13Ralpha>LC.5002-003 (DSM ACC2710)
Take B2: the binding result in assay [3] and in assay [6] was “no binding (tested: 3.3 nM)” each time. In addition, the “EC50 (read off the curve)” value in assay [4] was around 0.4 nM.
